Measurements reported in patent US20060165677A1, “DELETION FORMS OF IgE-DEPENDENT HISTAMINE RELEASING FACTOR HAVING HISTAMINE RELEASING ACTIVITY, HRF-BINDING PEPTIDES AND THE USES THEREOF” (EWHA UNIVERSITY-INDUSTRY COLLABORATION FOUNDATION, priority 2005, published 2006).
Entries after “also recorded” stand apart in the source; their conditions may differ.

Assays:
[1] = tested on: phage φ-HBP-2 expressing HRF-binding peptide; test: Phage display peptide clone-binding capacity of immobilized HRF forms (ELISA); details: HRF form immobilized on plate, ELISA at 405 nm
Method: Each deletion form of HRF was immobilized on a plastic well, to which phage expressing HRF-binding peptide was added in order to investigate binding capacity of each HRF.
Particularly, each deletion form of HRF dissolved in coating buffer (0.1 M NaHCO3, pH 8.6) at the concentration of 20 μg/Ml was placed on polystyrene microtiter plate by 50 μl, followed by coating at 4° C. for overnight and non-specific binding was blocked with BSA. The plate was washed with 0.1% tween/TBS (TBST) 6 times, to which 30 μl of phage solution diluted in 30 μl of 6% BSA/PBS was added. The solution stood at room temperature for 2 hours. After washing with PBST five times, 100 μl of […] anti-M13 antibody (Pharmacia), diluted in 3% BSA/PBS at the ratio of 1:5000, was added to the solution, followed by standing at room temperature for one hour. After washing 6 times with PBST and once more with PBS, 100 μl of peroxidase substrate solution was added and color development was measured at 405 nm by using ELISA reader (Bio-Rad).

Del-N35HRF = molecular target: T1, Del-N35HRF (Rattus norvegicus, UniProt P63029); test: Inhibition by HRF-binding peptides of Del-N35HRF-induced IL-8 secretion in BEAS-2B cells; format: cell-based; details: Del-N35HRF 61 nM, peptide 6.1-610 nM, 24 hours
T1 construct: 6xHis (pRSET-A leader) (N); made in house; host or cells: E. coli BL21(DE3) or BL21(DE3)pLysS
T1 sequence (P63029 35-172): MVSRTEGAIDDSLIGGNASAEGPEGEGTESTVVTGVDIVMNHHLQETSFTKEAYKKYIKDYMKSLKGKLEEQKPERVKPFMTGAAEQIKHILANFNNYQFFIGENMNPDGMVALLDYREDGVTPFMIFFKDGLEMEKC
Method: The interactions between HRF-binding peptides and deletion forms of HRF were investigated in BEAS-2B cells. Del-N35HRF (61 nM) was treated to BEAS-2B cells by the same manner as described in Example 3. At that time, HRF-binding peptide and its mutant in which alanine was replaced (Korean Registered Patent No. 457350B1), and HRF-binding peptides in which amino acid 1 or 7 was deleted were added to Del-N35HRF with different concentrations (6.1-610 nM), followed by standing at room temperature for 10 minutes, which would be added to the cell lines. 24 hours later, supernatant was obtained and the released IL-8 was quantified by PIERCE.

deletion forms of HRF = test: Inhibition by HRF-binding peptide of HRF-induced histamine secretion in RBL-2H3 cells; format: cell-based; details: RBL-2H3 cells sensitized with rat IgE
Method: RBL-2H3 cells (ATCC) were cultured in 24-well plate at the concentration of 5×10^4 cells/well, followed by sensitization with rat IgE antibody (0.2 μg/Ml, Serotec) for 60 minutes. The cells were treated with […] of recombinant HRF protein in 5% FBS/MEM medium (positive control). The cells were treated with heptamer peptide (Korean Registered Patent No. 457350B1) with different concentrations (0.0156-15.6 mM). 15 minutes later, rat anti-IgE antibody was added thereto. 4 hours later, supernatant was obtained and the isolated histamine was measured by using histamine analyzer (Astoria Analyzer, Series 300 system).

BEAS-2B cells = test: IL-8 releasing activity in BEAS-2B cells according to HRF forms; format: cell-based; details: for IL-8 releasing activity at low level of HRF: HRF 1 μg/Ml, lower than minimum level for IL-8 secretion by wild type HRF; for IL-8 releasing activity: compared with wild type HRF
Method: The activities of different deletion forms of HRF were compared by investigating IL-8 secretions in BEAS-2B cells (ATCC). BEAS-2B cells were cultured in 48-well plate until they were 70% grown up. Then, the cells were washed with 1% penicillin-streptomycin/BEBM (Clonetics) twice, to which each recombinant protein (RrHRF or each deletion form of HRF) separated in Example <1-3> was added by 1 μg/Ml or 10 μg/Ml. 48 or 24 hours later, supernatant was obtained and IL-8 therein was measured by PIERCE (FIG. 5).

[2] = tested on: IgE sensitized human basophils; test: Histamine releasing activity in human basophils according to HRF forms; format: cell-based; details: compared with wild type HRF
Method: The activities of different deletion forms of HRF were compared by investigating histamine secretions in human basophils. 40 Ml of venous blood was taken from a donor with atopic dermatitis. To the blood sample was added 10 mM of EDTA, an anticoagulant, and 10 Ml of dextran containing 6% saline. The solution stood at room temperature for 90 minutes and then supernatant containing leukocytes was separated, followed by centrifugation at 150×g for 8 minutes. The recovered leukocytes were washed twice with PAG-EDTA (4 mM EDTA, 25 mM PIPES, 110 mM NaCl, 5 mM KCl, 0.003% HSA, 0.1% D-glucose), which were left in cold lactate buffer (13.4 mM lactic acid, 140 mM NaCl, 5 mM KCl, pH 3.9) for 3-5 minutes to eliminate IgE adhered on the surface of cells. The cells were washed with 30 Ml of PAG-EDTA twice and resuspended in PAG-EDTA, followed by IgE-sensitization (1 μg/Ml, Serotec) for 2 hours. Then, the cells were washed with IMDM medium (Gibco BRL) supplemented with 5% FBS twice, to which each recombinant protein (rHRF or each deletion form of HRF) prepared in Example <1-3> was added by 20 μg/Ml. 15 minutes later, human anti-IgE antibody was added thereto. Four hours later, supernatant was obtained. The isolated histamine was measured by histamine analyzer (Astoria Analyzer, Series 300 system) (FIG. 6).

Del-N84C108HRF: deletion form of rat HRF, amino acid 84-108 fragment (TKEAYKKYIKDYMKSLKGKLEEQKP; listed as Rattus norvegicus)
affinity to phage expressing HRF-binding heptamer peptide (HBP2) [1]: high
affinity to phage expressing HRF-binding heptamer peptide (HBP2) ([1]; listed as SEQ ID NO:8): excellent

HBP-2: HRF-binding heptamer peptide having the sequence WYVYPSM (Korean Registered Patent No. 457350B1)
inhibition of IL-8 secretion by deletion forms of HRF (Del-N35HRF): inhibits
inhibition of IL-8 secretion by deletion forms of HRF (Del-N35HRF; listed as HRF-binding peptide): dose-dependently
inhibition of histamine releasing by deletion forms of HRF (deletion forms of HRF): inhibits
inhibition of histamine releasing by deletion forms of HRF (deletion forms of HRF; listed as HRF-binding peptide): dose-dependently

B1: Del-N35HRF: deletion form of rat HRF, amino acid 35-172 fragment; 34 N-terminal residues deleted (protein, listed as Rattus norvegicus)
chain: T1 sequence (P63029 35-172)
IL-8 releasing activity at low level of HRF (BEAS-2B cells): detected
IL-8 releasing activity (BEAS-2B cells): greater
IL-8 releasing activity (BEAS-2B cells; listed as SEQ ID NO:3): excellent; also recorded: increased
histamine releasing activity [2]: more effectively than wild type HRF; also recorded: increased
histamine releasing activity ([2]; listed as SEQ ID NO:3): excellent; also recorded: similarly induced histamine releasing
affinity to phage expressing HRF-binding heptamer peptide (HBP2) [1]: very strong

B2: RrHRF: recombinant total-length rat HRF, amino acids 1-172 (Accession number U20525) (protein, listed as Rattus norvegicus)
chain: MIIYRDLISHDELFSDIYKIREIADGLCLEVEGKMVSRTEGAIDDSLIGGNASAEGPEGEGTESTVVTGVDIVMNHHLQETSFTKEAYKKYIKDYMKSLKGKLEEQKPERVKPFMTGAAEQIKHILANFNNYQFFIGENMNPDGMVALLDYREDGVTPFMIFFKDGLEMEKC
affinity to phage expressing HRF-binding heptamer peptide (HBP2) [1]: very weak
affinity to phage expressing HRF-binding heptamer peptide (HBP2) ([1]; listed as wild type HRF): weak

B3: Del-N39C110HRF: deletion form of rat HRF, amino acid 39-110 fragment (protein, listed as Rattus norvegicus)
chain: TEGAIDDSLIGGNASAEGPEGEGTESTVVTGVDIVMNHHLQETSFTKEAYKKYIKDYMKSLKGKLEEQKPER
affinity to phage expressing HRF-binding heptamer peptide (HBP2) ([1]; listed as SEQ ID NO:5): excellent

B4: Del-C112HRF: deletion form of rat HRF, amino acid 1-112 fragment (protein, listed as Rattus norvegicus)
chain: MIIYRDLISHDELFSDIYKIREIADGLCLEVEGKMVSRTEGAIDDSLIGGNASAEGPEGEGTESTVVTGVDIVMNHHLQETSFTKEAYKKYIKDYMKSLKGKLEEQKPERVK
histamine releasing activity [2]: as much as that of wild type HRF
affinity to phage expressing HRF-binding heptamer peptide (HBP2) [1]: very weak and weak

B5: Del-N11HRF: deletion form of rat HRF, amino acid 11-172 fragment; 10 N-terminal residues deleted (protein, listed as Rattus norvegicus)
chain: DELFSDIYKIREIADGLCLEVEGKMVSRTEGAIDDSLIGGNASAEGPEGEGTESTVVTGVDIVMNHHLQETSFTKEAYKKYIKDYMKSLKGKLEEQKPERVKPFMTGAAEQIKHILANFNNYQFFIGENMNPDGMVALLDYREDGVTPFMIFFKDGLEMEKC
IL-8 releasing activity at low level of HRF (BEAS-2B cells): detected
IL-8 releasing activity (BEAS-2B cells): greater
IL-8 releasing activity (BEAS-2B cells; listed as SEQ ID NO:2): increased
histamine releasing activity [2]: more effectively than wild type HRF; also recorded: increased
histamine releasing activity ([2]; listed as SEQ ID NO:2): similarly induced histamine releasing
affinity to phage expressing HRF-binding heptamer peptide (HBP2) [1]: very strong
